Ends that are not written are not given here.
Assays:
SH-SY5Y cells = assay: Cytotoxicity of DGC (CCK-8); format: cell-based; set-up: key to Cell viability: viability relative to control cells (control = 1); conditions: for Cell viability: 24 h, CCK-8, normalized to control
Experimental: U87MG, SH-SY5Y, and CTX TNA2 cells were seeded into 96-well plates at a density of 5 × 10^3 cells per well and were incubated at 37 °C for 24 h. […] Next, 10 µL of a colorimetric Cell Counting Kit (CCK-8) reagent diluted with 100 µL medium was added to each well, and incubated for 30 min, The absorbance at 450 nm was measured using a microplate reader (Molecular Devices, San Jose, CA, USA). The relative viability was normalized to control cells. The experiment was performed in triplicates.

CTGF = assay: Chromogenic DAB oxidation in DGC-labelled cells; format: cell-based; conditions: 40 μM DGC 4 °C overnight + DAB, Image Pro Plus
Experimental: To observe accurately the expression level of CTGF in cells with the naked eye, we optimized the conditions for labeling U87MG, SH-SY5Y, and CTX TNA2 cells stained with DGC. According to the study, the optimal incubation concentration of DGC (40 μM) was used to determine the optimal culture conditions using the DAB Horseradish Peroxidase Color Development Kit. After the cells were co-stained by DGC at 4 °C overnight, a DAB chromogenic agent was added to the cells. Since DGC can label CTGF proteins on the cells, when DAB chromogenic is added, DGC on the cells can catalyze DAB to produce an insoluble brown precipitate to attach to the cells.

[1] = Biodistribution of DGC in organs by ex vivo NIR-II imaging; set-up: species or system APP/PS1 and wild-type mice; conditions: ex vivo NIR-II observation of major organs
Experimental: Mice were then perfused intracardially with saline and 4% PFA, and major organs (including the brain, heart, liver, spleen, lung, and kidney were isolated. The dissociated brains were performed NIR-II imaging ex vivo using the same method as in vivo imaging (n = 3). All isolated organs were also imaged by the NIR-II imaging system (λ ex = 808 nm, 1000 nm longpass (LP) filter (Edmund Optics)). And then, the brains were kept in 4% PFA overnight and embedded with paraffin. Sections with 5-μm thickness were cut and analyzed by immunostaining with antibodies to CTGF (dilution 1: 50, Abcam, Cat#ab6992), GFAP (dilution 1:100, Proteintech, Cat#16825-1-AP), CD31 (dilution 1:200, Beyotime, Cat#AF6408), Neun (dilution 1:300, abcam, Cat# ab177487), and Iba 1 (dilution 1:50, Beyotime, Cat# AF7143), respectively.

[2] = ICP-MS of Au in whole brains of DGC-injected mice; format: in vivo, APP/PS1 and WT mice; conditions: DGC-injected 3-month-old APP/PS1 mice vs WT, n = 3
Experimental: SH-SY5Y cell, maybe resulting in a similar perception of fluorescence intensity.
Reviewer 1: The ICP-MS of the whole brains from DGC-treated normal or APP/PS1 mice should be quantified, not only brain sections.
NIR-II imaging in Fig. 4 were frozen grinded and digested, and the content of Au in the whole brain was measured by ICP-MS. […]
which was consistent with the results of the NIR -II imaging.
Figure R7. The Au content in brains of DGC -injected 3-month-old APP/PS1 mice and the age- […]
hippo? Is there any experiment or literature to support the content of CTGF at different positions in different periods?
Response: According to previous reports, the expression pattern of CTGF was slightly different in several AD mouse models. The homing of DAG peptide was mainly seen in the cortex of the Tg2576 mice and in the hippocampus of the hAPP-J20 mice (Nat.
Commun. 2017, 8, 1403). A marked increase of CTGF levels in the brains of APP/PS1 transgenic mice were also observed, and is mainly located in the cortical (Mol.
(1 picture or pasted object on this page, not shown here)

“DGC: CTGF-targeting peptide-coated gold nanocluster: one Au26 gold nanocluster coated by eight DAG cyclic peptides, NIR-II and red fluorescence (CDAGRKQKC; also: cyclic peptide, ring not given here, eight peptides on one Au26 nanocluster via Cys Au-S bonds)” gave a Cell viability (SH-SY5Y cells; 5 μM (Au content), replicate 1) of 1.078, a Cell viability (SH-SY5Y cells; 5 μM (Au content), replicate 2) of 1.039 and a Cell viability (SH-SY5Y cells; 5 μM (Au content), replicate 3) of 1.074. For the same substance, the Cell viability (SH-SY5Y cells; 10 μM (Au content), replicate 1) was 0.9372, the Cell viability (SH-SY5Y cells; 10 μM (Au content), replicate 2) was 1.045 and the Cell viability (SH-SY5Y cells; 10 μM (Au content), replicate 3) was 1.038. For the same substance, the Cell viability (SH-SY5Y cells; 20 μM (Au content), replicate 1) was 1.029, the Cell viability (SH-SY5Y cells; 20 μM (Au content), replicate 2) was 1.021 and the Cell viability (SH-SY5Y cells; 20 μM (Au content), replicate 3) was 1.039. It also gave a Cell viability (SH-SY5Y cells; 50 μM (Au content), replicate 1) of 1.012, a Cell viability (SH-SY5Y cells; 50 μM (Au content), replicate 2) of 1.009 and a Cell viability (SH-SY5Y cells; 50 μM (Au content), replicate 3) of 1.025. The Cell viability (SH-SY5Y cells; 100 μM (Au content), replicate 1) was 0.9429, the Cell viability (SH-SY5Y cells; 100 μM (Au content), replicate 2) was 0.9751 and the Cell viability (SH-SY5Y cells; 100 μM (Au content), replicate 3) was 1.036. The Cell viability (SH-SY5Y cells; 200 μM (Au content), replicate 1) was 0.977, the Cell viability (SH-SY5Y cells; 200 μM (Au content), replicate 2) was 1.039 and the Cell viability (SH-SY5Y cells; 200 μM (Au content), replicate 3) was 0.9912. It also gave a Cell viability (SH-SY5Y cells; 500 μM (Au content), replicate 1) of 0.9817, a Cell viability (SH-SY5Y cells; 500 μM (Au content), replicate 2) of 0.9959 and a Cell viability (SH-SY5Y cells; 500 μM (Au content), replicate 3) of 1.057. For the same substance, the cytotoxicity (SH-SY5Y cells; DGC incubation 24 h, CCK-8) was “did not cause any obvious cytotoxicity”, the “DAB chromogenic imaging intensity” value (CTGF; CTX TNA2 cells, replicate 1) was 0.0128 and the “DAB chromogenic imaging intensity” value (CTGF; CTX TNA2 cells, replicate 2) was 0.01748. The “DAB chromogenic imaging intensity” value (CTGF; CTX TNA2 cells, replicate 3) was 0.0191, the “DAB chromogenic imaging intensity” value (CTGF; SH-SY5Y cells, replicate 1) was 0.04369 and the “DAB chromogenic imaging intensity” value (CTGF; SH-SY5Y cells, replicate 2) was 0.03714. The “DAB chromogenic imaging intensity” value (CTGF; SH-SY5Y cells, replicate 3) was 0.0465, the “DAB chromogenic imaging intensity” value (CTGF; U87MG cells, replicate 1) was 0.1444 and the “DAB chromogenic imaging intensity” value (CTGF; U87MG cells, replicate 2) was 0.1042. The “DAB chromogenic imaging intensity” value (CTGF; U87MG cells, replicate 3) was 0.1075, the “metabolism and excretion route” value [1] was “mainly metabolized by the liver and excreted through the kidney and liver” and the “Au content in whole brain, APP/PS1 vs age-matched WT” value [2] was “more than twice”.
